Measurements reported in the supplement of paper PMC10126150.
± gives the standard deviation of the averaged measurements.

Tested on: ATP
Test: switch fluorescence ratio, 500 uM ATP over buffer (Cy3 cluster intensity, sum of 5 cycles each) (fold (ratio)); higher = stronger signal-on switching upon ATP binding; sequences stand for … in TCGTCGGCAGCGTCAGATGTGTATAAGAGACAGTTTTTTTTTTTTTTTTTTTTTTTTT…TC
Settings: aptamer strand: ATP DNA aptamer (quencher-CACCTGGGGGAGTATTGCGGAGGAAGG + anchor), 100 nM annealed; ATP concentration: 500 uM
How it was run: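 Clusters with intensities outside 100-1000 RFU were excluded. The remaining Cy3-labelled switching-strand clusters on a modified Illumina MiSeq flow-cell had been annealed to 100 nM quencher-labelled ATP aptamer and imaged in selection buffer, then after 15 min with 500 uM ATP at 22 °C, for five cycles separated by NaOH stripping and re-annealing. The fluorescence ratio, averaged per switch-domain sequence, is each cluster's summed target-cycle Cy3 intensity over its summed buffer-cycle Cy3 intensity.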
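Also: ATP exposure 15 min at 22 °C before imaging.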

Sequence | switch fluorescence ratio
ATTGTGCTGT | 0.976 ± 0.043
ATTGTGGATA | 0.95 ± 0.022
ATTGTGGGAA | 0.9843 ± 0.0028
ATTGTGGGAG | 0.972 ± 0.017
ATTGTGGGTT | 1 ± 0.021
ATTGTGTGGT | 1.01 ± 0.026
ATTGTTCTGA | 1.01 ± 0.032
ATTGTTGTTA | 0.98517 ± 0.00068
ATTGTTTTGT | 0.987 ± 0.051
ATTTAAAATC | 0.9614 ± 0.0045
ATTTAACGAG | 1.01 ± 0.021
ATTTAAGGGA | 0.982 ± 0.026
ATTTAATACG | 1.02 ± 0.052
ATTTAATTCG | 1.01 ± 0.022
ATTTACCGGA | 1.04 ± 0.052
ATTTACGAT | 1.02 ± 0.049
ATTTACTATA | 1.07 ± 0.0053
ATTTACTGCG | 1.01 ± 0.041
ATTTACTTGT | 1.05 ± 0.094
ATTTAGCGTC | 0.99 ± 0.016
ATTTAGGATT | 1.01 ± 0.018
ATTTAGGCGT | 1 ± 0.039
ATTTAGGGAT | 1.02 ± 0.051

Sequence | switch fluorescence ratio
ATTTAGGGCA | 1.02 ± 0.051
ATTTAGGGGT | 1.02 ± 0.057
ATTTAGGTAG | 1.02 ± 0.024
ATTTAGGTGG | 1.02 ± 0.053
ATTTAGGTTT | 1.01 ± 0.012
ATTTAGTGGG | 0.993 ± 0.048
ATTTATAGAT | 0.979 ± 0.028
ATTTATATCA | 1.01 ± 0.024
ATTTATATCC | 1.02 ± 0.013
ATTTATGTTA | 0.985 ± 0.012
ATTTATGTTG | 1.01 ± 0.031
ATTTATTCCG | 1.01 ± 0.032
ATTTCAAAAG | 0.974 ± 0.023
ATTTCAGATA | 1.01 ± 0.02
ATTTCAGGGA | 0.978 ± 0.024
ATTTCAGTAA | 1.05 ± 0.027
ATTTCAGTAG | 1.016 ± 0.0019
ATTTCAGTTG | 1.011 ± 0.006
ATTTCGGGGA | 0.997 ± 0.042
ATTTCGGGTT | 1.11 ± 0.28
ATTTCGTTCG | 0.977 ± 0.013
ATTTCTAACT | 1.015 ± 0.0022
ATTTCTCAAT | 1.01 ± 0.03

Sequence | switch fluorescence ratio
ATTTCTCTCT | 0.993 ± 0.014
ATTTCTTTTT | 1.03 ± 0.0055
ATTTGAACGT | 0.966 ± 0.085
ATTTGAATA | 0.984 ± 0.022
ATTTGACTTA | 1.03 ± 0.015
ATTTGAGAGC | 0.987 ± 0.017
ATTTGAGCAG | 1.01 ± 0.011
ATTTGATGAG | 0.987 ± 0.045
ATTTGCAACT | 0.994 ± 0.026
ATTTGCGATT | 1.03 ± 0.019
ATTTGCGTTC | 1.01 ± 0.056
ATTTGCTTGT | 1.01 ± 0.021
ATTTGGAAGA | 1.01 ± 0.0048
ATTTGGAAGT | 1.02 ± 0.018
ATTTGGACGG | 0.948 ± 0.026
ATTTGGATAA | 0.9893 ± 0.0066
ATTTGGATGT | 1 ± 0.026
ATTTGGGAAG | 1.01 ± 0.021
ATTTGGGCTG | 0.999 ± 0.015
ATTTGGGGAG | 1.02 ± 0.048
ATTTGGGGGT | 0.997 ± 0.023
ATTTGGTTGG | 0.987 ± 0.044
ATTTGGTTTC | 0.991 ± 0.025

Sequence | switch fluorescence ratio
ATTTGTAGGT | 0.9967 ± 0.0019
ATTTGTCGGC | 1.05 ± 0.051
ATTTGTCGTA | 0.997 ± 0.029
ATTTGTGGGA | 1 ± 0.029
ATTTGTTACG | 1.01 ± 0.046
ATTTGTTGAT | 1 ± 0.021
ATTTGTTGG | 1.029 ± 0.0076
ATTTGTTTCT | 0.9993 ± 0.0079
ATTTGTTTTA | 1.08 ± 0.17
ATTTTAAAGG | 0.977 ± 0.027
ATTTTAAATG | 1.04 ± 0.03
ATTTTAACGC | 1.048 ± 0.0063
ATTTTAATGC | 1.018 ± 0.0019
ATTTTAGAGC | 1.05 ± 0.038
ATTTTAGGAC | 1.03 ± 0.025
ATTTTAGGTT | 0.984 ± 0.03
ATTTTATGTG | 0.991 ± 0.018
ATTTTATTGT | 1 ± 0.05
ATTTTCAACT | 1.03 ± 0.018
ATTTTCATAC | 1.08 ± 0.026
ATTTTCCTTT | 1.02 ± 0.039
ATTTTCGGAT | 0.975 ± 0.01
ATTTTCGTTA | 1.04 ± 0.024

Sequence | switch fluorescence ratio
ATTTTGATAA | 1.02 ± 0.021
ATTTTGCCGG | 0.965 ± 0.013
ATTTTGGACC | 1 ± 0.021
ATTTTGGGAC | 1.03 ± 0.047
ATTTTGTAGT | 1.02 ± 0.029
ATTTTGTCTT | 1.02 ± 0.019
ATTTTGTGAT | 0.994 ± 0.025
ATTTTGTGGA | 0.987 ± 0.015
ATTTTGTTAG | 0.998 ± 0.011
ATTTTGTTGT | 1.03 ± 0.048
ATTTTTAACT | 0.99578 ± 0.00077
ATTTTTACTC | 1.01 ± 0.029
ATTTTTAGCA | 0.99765 ± 0.00045
ATTTTTAGCT | 1.02 ± 0.031
ATTTTTAGGG | 1.02 ± 0.033
ATTTTTCCGT | 1.02 ± 0.019
ATTTTTCTTC | 1.035 ± 0.0046
ATTTTTGAAC | 0.99 ± 0.019
ATTTTTGGTC | 0.9864 ± 0.0038
ATTTTTGTGA | 0.98 ± 0.013
ATTTTTTAAG | 0.9996 ± 0.0081
ATTTTTTTG | 0.955 ± 0.021
CAAAAAGAAT | 1.003 ± 0.0048

Sequence | switch fluorescence ratio
CAAAAAGAGT | 1.014 ± 0.009
CAAAAAGCAC | 1.06 ± 0.036
CAAAAATTTT | 0.986 ± 0.026
CAAAAGAACG | 0.975 ± 0.031
CAAAAGATTC | 1.045 ± 0.0095
CAAAAGTCGA | 1.04 ± 0.031
CAAAATATGG | 0.984 ± 0.051
CAAAATTCCG | 1.08 ± 0.017
CAAACGTGGG | 0.98611 ± 0.00012
CAAAGAACTT | 1.01 ± 0.018
CAAAGCATCT | 1.09 ± 0.011
CAAAGCGCTG | 0.986 ± 0.012
CAAAGGAAGC | 1.02 ± 0.05
CAAAGGCAGG | 1.004 ± 0.0065
CAAAGGGGAT | 0.99484 ± 0.00073
CAAAGTAATT | 0.983 ± 0.033
CAAAGTACGT | 1.18 ± 0.043
CAAAGTTAAC | 0.949 ± 0.0098
CAAAGTTAGG | 0.97 ± 0.013
CAAAGTTGCG | 0.984 ± 0.017
CAAAGTTTCG | 1.04 ± 0.0012
CAAATAAAGG | 1.01 ± 0.025
CAAATACCTG | 1.04 ± 0.019

Sequence | switch fluorescence ratio
CAAATACGTT | 1.01 ± 0.029
CAAATATTTT | 0.996 ± 0.017
CAAATGTCAG | 0.99 ± 0.028
CAAATTATGG | 1.03 ± 0.01
CAAATTTGGT | 0.993 ± 0.032
CAAATTTTCT | 0.978 ± 0.025
CAACCGTGAA | 1.91 ± 0.92
CAACCTGCAG | 1.06 ± 0.012
CAACGCCTCC | 3.52 ± 0.082
CAACGGGTTC | 1.03 ± 0.024
CAACTATTGC | 1.04 ± 0.036
CAACTATTTG | 1 ± 0.013
CAACTCAGTA | 0.988 ± 0.016
CAAGAAATTA | 1 ± 0.011
CAAGAATGTA | 0.973 ± 0.024
CAAGACCACT | 1.06 ± 0.045
CAAGACTTCG | 1.01 ± 0.052
CAAGAGGGAC | 1.04 ± 0.13
CAAGATATAT | 1 ± 0.016
